Reference: patent publication US20160075781A1 (IMMUNOGEN, published 2016)

Target: T1, human folate receptor 1 (human, UniProt P15328 25-234)
T1 construct: also called FOLR1; Folate Receptor-alpha
Assay: flow cytometry on FOLR1-expressing SKOV3 cells; apparent Kd from the fit of MFI against antibody concentration
Protocol: Binding affinities of anti-FOLR1 antibodies and of their SPDB-DM4, PEG4Mal-DM4, SMCC-DM1, or anti-FOLR1-sulfo-SPDB-DM4 conjugates were assayed by Flow Cytometry. FOLR1-expressing SKOV3 cells were incubated with varying concentrations of anti-FOLR1 antibodies or their conjugates and processed as described above for flow cytometry analysis. Data analysis was performed using CellQuest Pro (BD Biosciences, San Diego, US) and for each sample the mean fluorescence intensity for FL1 (MFI) was exported and plotted against the antibody concentration in a semi-log plot. A dose-response curve was generated by non-linear regression and the value for the apparent equilibrium dissociation constant (Kd) of the test-samples for the binding to SKOV3 cells was calculated using GraphPad Prism v4 (GraphPad software, San Diego, Calif.) and presented in FIG. 5.

T1 sequence (P15328 25-234 limits assumed): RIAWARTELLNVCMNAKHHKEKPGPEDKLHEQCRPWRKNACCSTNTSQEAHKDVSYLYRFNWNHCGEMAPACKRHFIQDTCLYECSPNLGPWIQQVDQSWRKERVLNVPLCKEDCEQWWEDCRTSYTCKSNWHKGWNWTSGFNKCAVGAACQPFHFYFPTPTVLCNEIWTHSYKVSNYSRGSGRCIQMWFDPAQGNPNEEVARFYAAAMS

Binder | Kd
muFR1-9 (antibody, V domains shown) VH: QVQLVESGGGLVQPGGSRKLSCAASGFTFSSFGMHWVRQAPEKGLEWVAYISSGSSTFYYADTVKGRFTISRDNPKNTLFLQMTSLRSEDTAMYYCAKELTGTFAYWGQGTLVTVSA VL: DIVLTQSPATLSVTPGDSVSLSCRASQSINNNLHWYQQKSHESPRLLIKYASQSISGIPSRFSGSGSGTDFTLSINSVETEDFGMYFCQQSNSWPQVTFGAGTKLELKR | 0.13 nM
muFR1-13 (antibody, V domains shown) VH: QVQLKESGPDLVAPSQSLSITCTVSGFSLSRYSVHWIRQPPGKGLEWLGMIWSGGNTDYNSVFKSRLNITKDNSKSQVFLKMNSLQTDDTAIYYCATFDGKVSWFAYWGQGTLVTVSA VL: SIVMTQTPKFLLVSTGDRFTITCKASQSVSNDVLWYQQKPGQSPKLLIYYAYNRYSGVPDRFTGSGYGTDFTFTITTVQSEDLAVYFCQQDHSSPFTFGSGTKLEIKR | 0.66 nM
huMov19 (antibody, V domains shown, Resurfaced humanized Mov19, full IgG1/kappa; also called humanized Mov19) VH: QVQLVQSGAEVVKPGASVKISCKASGYTFTGYFMNWVKQSPGQSLEWIGRIHPYDGDTFYNQKFQGKATLTVDKSSNTAHMELLSLTSEDFAVYYCTRYDGSRAMDYWGQGTTVTVSS VL: DIVLTQSPLSLAVSLGQPAIISCKASQSVSFAGTSLMHWYHQKPGQQPRLLIYRASNLEAGVPDRFSGSGSKTDFTLNISPVEAEDAATYYCQQSREYPYTFGGGTKLEIKR | 0.07 nM
muFR1-21 (antibody, mouse IgG2b, kappa, V domains shown, murine anti-FOLR1 antibody; also called murine FR1-21) VH: EVKLVESGGDLVKPGGSLKLSCAASGFTFSSYGMSWVRQTPDKRLECVATISSGGSYTYYPDGVKGRFTISRDNAKNTLYLQMSSLKSEDTAMYYCARDGEGGLYAMDYWGQGTSVTVSS VL: DIQMTQSSSYLSVSLGGRVTITCKASDHINNWLAWYQQKPGNAPRLLISGATSLETGVPSRFSGSGSGKDYTLSISSLQTEDVATYYCQQYWSTPFTFGSGTKLEIKR | 0.07 nM
huFR1-21 (antibody, human IgG1, kappa, V domains shown, unconjugated humanized FR1-21; also called humanized FR1-21) VH: EVQLVESGGDVVKPGGSLKLSCAASGFTFSSYGMSWVRQTPGKGLECVATISSGGSYTYYSPGFQGRFTISRDKSKNTLYLQMSSLKAEDTAMYYCARDGEGGLYAMDYWGQGTSVTVSS VL: DIQMTQSSSSLSVSVGGRVTITCKASDHINNWLAWYQQKPGKAPKLLISGATSLETGVPSRFSGSGSGKDYTLSISSLQPEDVATYYCQQYWSTPFTFGQGTKLEIKR | 0.07 nM

Target: T1, human folate receptor 1
Assay: apparent affinity, flow cytometry on FOLR1-expressing cells ('as described above'; cell line not named in Example 19, SKOV3 in Example 13)

Binder | Kd
huFR1-57 (antibody, human IgG1, kappa, V domains shown) VH: EVQLVESGGGLVQPGGSRRLSCAASGFTFSSFGMHWVRQAPGKGLEWVAYISSGSSTISYADSVKGRFTISRDNSKKTLLLQMTSLRAEDTAMYYCAREAYGSSMEYWGQGTLVTVSS VL: EIVLTQSPATLSVTPGDRVSLSCRASQNINNNLHWYQQKPGQSPRLLIKYVSQSVSGIPDRFSGSGSGTDFTLSISSVEPEDFGMYFCQQSNSWPHYTFGQGTKLEIKR | 0.14 nM
huFR1-48 (antibody, human IgG1, kappa, V domains shown) VH: QVQLVQSGAEVAKPGASVKLSCKASGYTFTNYWMQWIKQRPGQGLEWIGAIYPGNGDSRYTQKFQGKATLTADKSSSTAYMQVSSLTSEDSAVYYCARRDGNYAAYWGQGTLVTVSA VL: DIQMTQSPSSLSVSVGERVTITCRASENIYSNLAWYQQKPGKSPKLLVYAATNLADGVPSRFSGSESGTDYSLKINSLQPEDFGSYYCQHFWASPYTFGQGTKLEIKR | 0.13 nM
huFR1-49 (antibody, human IgG1, kappa, V domains shown) VH: QVQLQQSGAVVAKPGASVKMSCKASGYTFTNYWMYWIKQRPGQGLELIGAIYPGNSDTTYNQKFQGKATLTAVTSANTVYMEVSSLTSEDSAVYYCTKRHDYGAMDYWGQGTSVTVSS VL: DIQMTQSPSSLSVSVGERVTITCRASENIYTNLAWYQQKPGKSPKLLVYTASNLADGVPSRFSGSGSGTDYSLKINSLQPEDFGTYYCQHFWVSPYTFGQGTKLEIKR | 0.08 nM

Continued, values first:

Kd | Binder
0.06 nM | huMov19 (antibody, V domains shown, Resurfaced humanized Mov19, full IgG1/kappa; also called humanized Mov19) VH: QVQLVQSGAEVVKPGASVKISCKASGYTFTGYFMNWVKQSPGQSLEWIGRIHPYDGDTFYNQKFQGKATLTVDKSSNTAHMELLSLTSEDFAVYYCTRYDGSRAMDYWGQGTTVTVSS VL: DIVLTQSPLSLAVSLGQPAIISCKASQSVSFAGTSLMHWYHQKPGQQPRLLIYRASNLEAGVPDRFSGSGSKTDFTLNISPVEAEDAATYYCQQSREYPYTFGGGTKLEIKR
0.15 nM | huFR1-65 (antibody, human IgG1, kappa, V domains shown) VH: QVQLVQSGAEVAKPGASVKMSCKASGYTFTSYTMHWVKQRPGQGLAWIGYINPISGYTNYNQKFQGKATLTADKSSSTAYMQLNSLTSEDSAVYYCASGGAYGRKPMDYWGQGTSVTVSS VL: EIVMTQSPATMSTSPGDRVSVTCKASQNVGPNVAWYQQKPGQSPRALIYSASYRYSGVPARFTGSGSGTDFTLTISNMQSEDLAEYFCQQYNSYPYTFGQGTKLEIKR

Target: T1, human folate receptor 1
Assay: cell-based or functional assay

Binder | IC50, cytotoxic activity of the PEG4-mal-DM4 conjugate on KB cells, continuous exposure (WST-8 survival)
huMov19-PEG4-mal-DM4 (antibody, V domains shown, maytansinoid DM4 attached through the PEG4-mal linker; residues and chain not stated) VH: QVQLVQSGAEVVKPGASVKISCKASGYTFTGYFMNWVKQSPGQSLEWIGRIHPYDGDTFYNQKFQGKATLTVDKSSNTAHMELLSLTSEDFAVYYCTRYDGSRAMDYWGQGTTVTVSS VL: DIVLTQSPLSLAVSLGQPAIISCKASQSVSFAGTSLMHWYHQKPGQQPRLLIYRASNLEAGVPDRFSGSGSKTDFTLNISPVEAEDAATYYCQQSREYPYTFGGGTKLEIKR | 0.15 nM
muFR1-21 PEG4-mal-DM4 conjugate (antibody, mouse IgG2b, kappa, V domains shown, DM4 linked through PEG4-mal; sites not given) VH: EVKLVESGGDLVKPGGSLKLSCAASGFTFSSYGMSWVRQTPDKRLECVATISSGGSYTYYPDGVKGRFTISRDNAKNTLYLQMSSLKSEDTAMYYCARDGEGGLYAMDYWGQGTSVTVSS VL: DIQMTQSSSYLSVSLGGRVTITCKASDHINNWLAWYQQKPGNAPRLLISGATSLETGVPSRFSGSGSGKDYTLSISSLQTEDVATYYCQQYWSTPFTFGSGTKLEIKR | 0.1 nM
huFR1-21-PEG4-mal-DM4 (antibody, human IgG1, kappa, V domains shown, maytansinoid DM4 attached through the PEG4-mal linker; residues and chain not stated) VH: EVQLVESGGDVVKPGGSLKLSCAASGFTFSSYGMSWVRQTPGKGLECVATISSGGSYTYYSPGFQGRFTISRDKSKNTLYLQMSSLKAEDTAMYYCARDGEGGLYAMDYWGQGTSVTVSS VL: DIQMTQSSSSLSVSVGGRVTITCKASDHINNWLAWYQQKPGKAPKLLISGATSLETGVPSRFSGSGSGKDYTLSISSLQPEDVATYYCQQYWSTPFTFGQGTKLEIKR | 0.1 nM
